One assay has as its target T1, CBDN1 (Cellulomonas fimi, UniProt P14090).
T1 construct: leader (signal) peptide of C. fimi exoglucanase Cex (N); made in house; host or cells: E. coli JM101 (pTugKN1), purified from culture supernatant
T1 sequence (P14090 33-184): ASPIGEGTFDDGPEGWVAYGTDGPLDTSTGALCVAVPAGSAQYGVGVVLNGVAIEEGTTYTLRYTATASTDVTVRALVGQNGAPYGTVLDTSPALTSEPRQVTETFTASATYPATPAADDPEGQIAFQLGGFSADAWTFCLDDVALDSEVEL
Nature of the assay: Isothermal titration microcalorimetry of oligosaccharide binding to CBDN1. The note with it: 35° C.; for Kd: 50-mM PBS, pH 7, read-out: Isothermal Titration Microcalorimetry Ka (converted). The text has this:
Microcalorimetry was used to measure binding thermodynamics for CBDN1 to a wide range of water-soluble oligosaccharides with the aim of identifying a set of suitable ligands for the affinity partition system. […] For both oligosaccharides, CBDN1 binding is as tight or even tighter than nearly all PEG-based affinity ligands (e.g., Cibacron blue-PEG, Procion red-PEG, dinitrophenyl-PEG, diacetic acid-PEG) currently in use in affinity partition systems.
(In general: In ITC the heat of successive injections is recorded.)

For another assay, the target named is T2, N1 (CBDN1) (Cellulomonas fimi, UniProt P14090).
T2 construct: leader (signal) peptide of C. fimi exoglucanase Cex (N); made in house; host or cells: E. coli JM101 (pTugKN1), purified from culture supernatant
T2 sequence (P14090 33-184): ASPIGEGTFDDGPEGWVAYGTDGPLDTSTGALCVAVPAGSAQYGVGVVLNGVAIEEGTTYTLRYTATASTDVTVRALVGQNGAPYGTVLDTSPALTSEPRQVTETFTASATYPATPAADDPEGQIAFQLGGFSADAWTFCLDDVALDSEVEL
Nature of the assay: N1 binding constants by NMR. As to conditions: 35° C.; read-out: NMR Ka (converted).

A further assay deals with B6SUtA cells. Nature of the assay: Activity of SLF-CBD bound to regenerated cellulose coated microtiter plates (MTT). Format: cell-based. How it is done: A 1% (w/v) solution of cellulose acetate was prepared by adding one gram of cellulose acetate (Kodak Inc.) to 99 ml of acetic acid. One hundred μl of this solution was added to each well of the standard 96 well tissue culture plates used above, and the acetic acid allowed to evaporate. One hundred μl of 50 mM NaOH was then added to each well and left for 20 minutes to regenerate a cellulose surface. The NaOH was then poured out, and the wells rinsed three times with PBS. Three hundred μl of 70% (v/v) ethanol was then added to each well, the plate lid replaced, and the ethanol allowed to evaporate as a sterilization step.
Activity tests were carried out as previously described except that a cellulose acetate derived surface was used to immobilize SLF/CBD instead of BMCC. Twenty μl protein test samples were put into cellulose coated wells. […] Activity was measured after 48 h of culture using the […] with data points collected in quadruplicate. […]
Non-tagged SLF was used as a control. In one set of control experiments, SLF was added to cellulose coated tissue culture wells as before, the surface was seeded with fresh cells three times, and the proliferation measured. […] These surfaces were seeded with cells three times and the activity measured.

Assay [1] concerns SLF dependent bone marrow cell line B6SUtA1. Nature of the assay: MTT proliferation assay of SLF-CBD in solution or bound to BMCC. Format: cell-based. As to conditions: for distribution of activity between BMCC and supernatant after Factor Xa cleavage: 1 μg/ml BMCC, Factor Xa added; for effect of presence of BMCC on activity: protein concentration varied; for distribution of activity between BMCC and supernatant: bound to 1 μg/ml BMCC, matrix removed by centrifugation and resuspended; for potency when immobilized on cellulose vs in solution (maximum proliferative response, specific activity): immobilized on cellulose (BMCC); for proliferative activity in solution (MTT), compared with control SLF: non-immobilized, absence of an immobilization matrix. The protocol:
Samples of purified SLF-CBD were diluted in H-SFM. […] In experiments where BMCC was used, 50 μl of a BMCC suspension in H-SFM was added to each well, and in experiments where no BMCC was used 50 μl of H-SFM alone was added.
Statistical analysis of data was carried out with regression curve fitting in two iterations using non-linear regression analysis from the GraFit version 3.0 statistical analysis program (Erithacus Software Ltd., Staines, U.K.).

A short description of assay [2]: Binding of SLF-CBD to Avicel cellulose during purification. The note with it: affinity chromatography on Avicel. The protocol: The plasmid pSLF/CBD 1.0 was transformed into E. coli JM101 (Yanisch-Perronet al. (1985) Gene 33: 103-119) for expression. Several colonies were scraped from a plate and used to inoculate a 5 ml test tube of Terrific Broth (Tartof and Hobbs, Bethesda Res. Lab. Focus 9: 12) containing […] kanamycin. This tube was incubated with shaking at 37° C. for four hours and then used to inoculate four flasks containing 500 ml of the same medium at 0.2% volume. These flasks were then incubated at 37° C. with shaking at 250 rpm until a cell culture optical density (OD550) […]. The cells were then induced by the addition of 0.1 mM IPTG and shifted to 30° C. with shaking at 100 rpm for a further eight hours. Cells were then harvested and the periplasmic proteins isolated by osmotic shock (Neu and Heppel (1965) J. Biol. Chem. 240: 3685-3692). Five mg of Avicel microcrystalline cellulose (FMC International, Cork, Ireland) was added to either 10 ml of culture supernatant or 1 ml of periplasmic extract and then removed by centrifugation. SDS-PAGE loading buffer was than added to the Avicel, which was then boiled for two minutes and loaded directly onto a gel for SDS-PAGE analysis (Laemmli, supra.) (FIG. 8A).

Setting [3] is: BMCC fixed at 1 μg/ml or 14 μg/ml.

Entries after “also recorded” stand apart in the source; their conditions may differ.

In the case of `OC[C@H]1O[C@@H](O[C@H]2[C@H](O)[C@@H](O)[C@H](O[C@H]3[C@H](O)[C@@H](O)[C@H](O[C@H]4[C@H](O)[C@@H](O)[C@H](O[C@H]5[C@H](O)[C@@H](O)[C@H](O[C@H]6[C@H](O)[C@@H](O)C(O)O[C@@H]6CO)O[C@@H]5CO)O[C@@H]4CO)O[C@@H]3CO)O[C@@H]2CO)[C@H](O)[C@@H](O)[C@@H]1O` (stereo partly shown) [Cellohexaose], on CBDN1, the “Isothermal Titration Microcalorimetry -TΔS°” value was 0.79 ± 0.1 kcal/mol, the “Isothermal Titration Microcalorimetry ΔH°” value is reported as -6.9 ± 0.2 kcal/mol and the Kd is 0.0397 mM. Moreover, the Kd on N1 (CBDN1) was 19.6 µM.
On to `OC[C@H]1O[C@@H](O[C@H]2[C@H](O)[C@@H](O)[C@H](O[C@H]3[C@H](O)[C@@H](O)[C@H](O[C@H]4[C@H](O)[C@@H](O)[C@H](O[C@H]5[C@H](O)[C@@H](O)C(O)O[C@@H]5CO)O[C@@H]4CO)O[C@@H]3CO)O[C@@H]2CO)[C@H](O)[C@@H](O)[C@@H]1O` (stereo partly shown) [Cellopentaose], for which, on CBDN1, the “Isothermal Titration Microcalorimetry -TΔS°” value was found to be 0.86 ± 0.1 kcal/mol, the “Isothermal Titration Microcalorimetry ΔH°” value was -6.8 ± 0.2 kcal/mol and the Kd was 0.0559 mM. In addition, the Kd on N1 (CBDN1) is 29.4 µM.
As for `OC[C@H]1O[C@@H](O[C@H]2[C@H](O)[C@@H](O)[C@H](O[C@H]3[C@H](O)[C@@H](O)[C@H](O[C@H]4[C@H](O)[C@@H](O)C(O)O[C@@H]4CO)O[C@@H]3CO)O[C@@H]2CO)[C@H](O)[C@@H](O)[C@@H]1O` (stereo partly shown) [Cellotetraose], on CBDN1, the “Isothermal Titration Microcalorimetry -TΔS°” value stood at 1.4 ± 0.1 kcal/mol, the “Isothermal Titration Microcalorimetry ΔH°” value was -6.4 ± 0.2 kcal/mol and the Kd is 0.244 mM. In addition, the Kd on N1 (CBDN1) was 238 µM.
With `OC[C@H]1O[C@@H](O[C@H]2[C@H](O)[C@@H](O)[C@H](O[C@H]3[C@H](O)[C@@H](O)C(O)O[C@@H]3CO)O[C@@H]2CO)[C@H](O)[C@@H](O)[C@@H]1O` (stereo partly shown) [Cellotriose], on N1 (CBDN1), the Kd is 5560 µM.

B1: SLF-CBD: fusion protein: extracellular domain of murine steel factor linked to the cellulose binding domain of Cellulomonas fimi exoglucanase Cex (protein)
chain: KEICGNPVTDNVKDITKLVANLPNDYMITLNYVAGMDVLPSHCWLRDMVIQLSLSLTTLLDKFSNISEGLSNYSIIDKLGKIVDDLVLCMEENAPKNIKESPKRPETRSFTPEEFFSIFNRSIDAFKDFMVASDTSDCVLSSTLGPEKDSRVSVTKPFMLPPVAASSLRNDSSSSNRKAAKAPEDSGLQPTPTPTTPTPTPTTPTPTPTSGPAGCQVLWGVNQWNTGFTANVTVKNTSSAPVDGWTLTFSFPSGQQVTQAWSSTVTQSGSAVTVRNAPWNGSIPAGGTAQFGFNGSHTGTNAAPTAFSLNGTPCTVG
Regarding B1, the “fraction bound to reconstituted cellulose surface (activity on plate vs supernatant)” value in the assay on B6SUtA cells (cellulose coated microtiter plate) is given as “essentially all”. Further, in the assay with B6SUtA cells (three consecutive rounds of 48 h cell culture), the “proliferative activity after repeated use of the same surface” value is “no loss in proliferative activity; also recorded: no loss of proliferative activity; also recorded: without loss of growth-stimulating activity”. Further, in assay [1] (0.6 nM SLF-CBD, in solution), the “neutralization of activity by anti-SLF neutralizing polyclonal antibodies” value is listed as “neutralized”. Also, in assay [1], the “distribution of activity between BMCC and supernatant after Factor Xa cleavage” value is “the bulk of the activity was found in the supernatant”; the “distribution of activity between BMCC and supernatant” value is “the bulk of the activity was associated with the BMCC; also recorded: most of the activity was associated with the BMCC particles”; the “potency when immobilized on cellulose vs in solution (maximum proliferative response, specific activity)” value is “significantly more potent; also recorded: to a greater extent than non-immobilized steel factor”; the “proliferative activity in solution (MTT), compared with control SLF” value is “similar”. Further, the “distribution of activity between BMCC and supernatant after Factor Xa cleavage” value in assay [1] (listed as SLF/CBD) was “the activity was no longer associated with the BMCC”. In addition, in assay [1] (BMCC constant at 1 μg/ml (1.22 cm^2/ml)), the “SLF-CBD concentration at maximum stimulatory activity” value was “about 2000 pM”. In addition, in assay [1] (setting [3]), the “ED50 (protein concentration for half maximal response) in presence vs absence of BMCC” value was “decrease”, the “total cell proliferation in presence vs absence of BMCC” value is “increase” and the “effect of presence of BMCC on activity” value was “clearly more active in the presence of BMCC”. The “BMCC concentration at maximum activity” value in assay [1] (SLF-CBD held constant at 1500 pM, BMCC varied) was found to be 44 µg/mL. In assay [1] (soluble form), the “ED50 of soluble fusion protein vs control protein” value is recorded as “identical” and the “maximum cell density generated vs control protein” value was “not quite as great”. In addition, the “binding of the fusion protein to cellulose” value in assay [2] was “strong and difficult to reverse”.

B2: control SLF: recombinant extracellular domain of murine steel factor without affinity tag (R&D systems), positive control (protein)
chain: KEICGNPVTDNVKDITKLVANLPNDYMITLNYVAGMDVLPSHCWLRDMVIQLSLSLTTLLDKFSNISEGLSNYSIIDKLGKIVDDLVLCMEENAPKNIKESPKRPETRSFTPEEFFSIFNRSIDAFKDFMVASDTSDCVLSSTLGPEKDSRVSVTKPFMLPPVAASSLRNDSSSSNRKAAKAPEDSGLQ
Take B2: in assay [1] (setting [3]), the “effect of presence of BMCC on activity” value was “no effect”. The “distribution of activity between BMCC and supernatant” value is recorded as “most of the activity was in the supernatant” in assay [1] and “most of the activity was associated with the supematant” in assay [1] (listed as non-tagged SLF control). For the same molecule, the “potency when immobilized on cellulose vs in solution (maximum proliferative response, specific activity)” value in assay [1] is reported as “not observed”.

B3: CBD: recombinant cellulose binding domain of Cex, negative control (protein)
chain: SGPAGCQVLWGVNQWNTGFTANVTVKNTSSAPVDGWTLTFSFPSGQQVTQAWSSTVTQSGSAVTVRNAPWNGSIPAGGTAQFGFNGSHTGTNAAPTAFSLNGTPCTVG
Consider B3, for which the “proliferative activity in solution (MTT), compared with control SLF” value in assay [1] is recorded as “did not stimulate the proliferation”.

Values taken from patent US5874308A, “Compositions and methods for modulating cell proliferation using growth factor-polysaccharide binding fusion proteins” (priority 1996, dated 1999).
